Reference: the Immune Epitope Database (IEDB)

Experiments:
HLA-A*68:02 = test: IEDB peptide-MHC binding, purified MHC/competitive/radioactivity; filed as Kd, often an IC50 or EC50 that approximates it; ≥ and ≤ were set here for values at or beyond the usual limits of such assays
HLA-B*53:01 = test: as above; conditions: source organism: Dengue virus 4 Philippines/H241/1956
HLA-B*07:02 = test: as above
HLA-B*35:01 = test: as above; conditions: source organism: Dengue virus 4 Philippines/H241/1956
HLA-B*15:01 [1] = test: as above; conditions: source organism: Vaccinia virus Copenhagen
HLA-A*32:01 = test: as above
HLA-B*40:01 = test: IEDB peptide-MHC binding, purified MHC/direct/fluorescence; filed as Kd, often an IC50 or EC50 that approximates it; ≥ and ≤ were set here for values at or beyond the usual limits of such assays
HLA-B*18:01 [2] = test: as above; conditions: source organism: Orthohantavirus hantanense
HLA-A*02:01 = test: IEDB peptide-MHC binding, purified MHC/competitive/fluorescence; ≥ and ≤ were set here for values at or beyond the usual limits of such assays
HLA-A*24:02 = test: as above
HLA-B*08:01 = test: IEDB peptide-MHC binding, purified MHC/competitive/radioactivity; filed as Kd, often an IC50 or EC50 that approximates it; ≥ and ≤ were set here for values at or beyond the usual limits of such assays
HLA-A*02:06 = test: as above; conditions: source organism: Dengue virus 4 Philippines/H241/1956
HLA-A*26:01 [3] = test: IEDB peptide-MHC binding, purified MHC/direct/fluorescence; filed as Kd, often an IC50 or EC50 that approximates it; ≥ and ≤ were set here for values at or beyond the usual limits of such assays; conditions: source organism: Salmonella enterica subsp. enterica serovar Paratyphi A str. ATCC 9150
HLA-A*29:02 = test: IEDB peptide-MHC binding, purified MHC/competitive/radioactivity; filed as Kd, often an IC50 or EC50 that approximates it; ≥ and ≤ were set here for values at or beyond the usual limits of such assays; conditions: source organism: Lymphocytic choriomeningitis virus (strain Armstrong)
HLA-A*26:01 [4] = test: as above; conditions: source organism: Lymphocytic choriomeningitis virus (strain Armstrong)
HLA-A*01:01 = test: as above; conditions: source organism: Lymphocytic choriomeningitis virus (strain Armstrong)
HLA-A*30:02 = test: as above; conditions: source organism: Lymphocytic choriomeningitis virus (strain Armstrong)
HLA-A*30:01 = test: as above
HLA-B*57:01 = test: IEDB peptide-MHC binding, purified MHC/competitive/fluorescence; filed as Kd, often an IC50 or EC50 that approximates it; ≥ and ≤ were set here for values at or beyond the usual limits of such assays; conditions: source organism: Yersinia enterocolitica
HLA-B*39:01 = test: as above; conditions: source organism: Yersinia enterocolitica
HLA-B*46:01 = test: as above; conditions: source organism: Yersinia enterocolitica
HLA-B*15:01 [5] = test: as above; conditions: source organism: Yersinia enterocolitica
HLA-A*26:01 [6] = test: as above; conditions: source organism: Yersinia enterocolitica
HLA-B*27:03 = test: as above; conditions: source organism: Yersinia enterocolitica
HLA-B*18:01 [7] = test: as above; conditions: source organism: Yersinia enterocolitica
HLA-B*44:02 = test: IEDB peptide-MHC binding, purified MHC/direct/fluorescence; filed as Kd, often an IC50 or EC50 that approximates it; ≥ and ≤ were set here for values at or beyond the usual limits of such assays; conditions: source organism: Amur virus
[8] = source organism: Dengue virus 2 Jamaica/1409/1983
[9] = source organism: Dengue virus 4 Philippines/H241/1956
[10] = source organism: Zaire ebolavirus
[11] = source organism: Vaccinia virus WR
[12] = source organism: Dengue virus 1 Brazil/97-11/1997
[13] = source organism: Lymphocytic choriomeningitis virus (strain Armstrong)
[14] = source organism: Vaccinia virus

SGIFITDNV was tested, and the Kd (HLA-A*68:02; [8]) was 0.0121 µM.
For NPGFALLAGF, the Kd (HLA-B*53:01) was 1.52 µM, the Kd (HLA-B*07:02; [9]) was 0.233 µM and the Kd (HLA-B*35:01) was 5.44 µM.
For LLFFLALSI, the Kd (HLA-B*15:01 [1]) was 0.134 µM and the Kd (HLA-A*32:01; source organism: Vaccinia virus Copenhagen) was 0.5 µM.
Work on EEAIGKVLL yielded a Kd (HLA-B*40:01; source organism: Orthohantavirus hantanense) of 0.0137 µM and a Kd (HLA-B*18:01 [2]) of 1.72 µM.
For RSNTTGKLI, the IC50 (HLA-A*02:01; [10]) was no less than 805 µM and the IC50 (HLA-A*24:02; [10]) was 44.1 µM.
Work on VVAMRHLSL yielded a Kd (HLA-B*08:01; [11]) of 0.000976 µM.
In the case of MVAGGLLLA, the Kd (HLA-A*68:02; [9]) is reported as 0.0556 µM and the Kd (HLA-A*02:06) is reported as 0.0176 µM.
For SLNFRFENV, the Kd (HLA-B*08:01; [11]) was 0.586 µM.
IMKIGIGVLL gave a Kd (HLA-B*08:01; source organism: Dengue virus 3 Singapore/8120/1995) of 4.31 µM.
DLSDQIAEL showed a Kd (HLA-A*68:02; source organism: Homo sapiens) of 0.486 µM.
DVSEWDAVY gave a Kd (HLA-A*26:01 [3]) of 0.004 µM.
TPRAKRGTAQ was tested, and the Kd (HLA-B*07:02; [12]) was 0.113 µM.
With MTCIAVGGI the Kd (HLA-A*68:02; [9]) was 0.074 µM.
In the case of GPWHLGKLEM, the Kd (HLA-B*07:02; [8]) is reported as 0.0593 µM.
Work on ESFVRKQKY yielded a Kd (HLA-A*29:02) of no less than 65.1 µM, a Kd (HLA-A*32:01; [13]) of no less than 77.8 µM and a Kd (HLA-A*26:01 [4]) of 4.02 µM. For the same sequence, the Kd (HLA-A*01:01) was 10.8 µM, the Kd (HLA-A*30:02) was 3.14 µM and the Kd (HLA-A*30:01; [13]) was 12.2 µM.
KTRNVIRNI was tested, and the Kd (HLA-A*32:01; [11]) was 0.319 µM and the Kd (HLA-A*30:01; [11]) was 7.18e-05 µM.
DQIGDIIIA gave an IC50 (HLA-A*24:02; source organism: Variola virus) of 0.789 µM.
For QVFGSVYTT, the Kd (HLA-A*32:01; [9]) was 8.25 µM.
YTNSVTNIEL showed a Kd (HLA-A*68:02; [9]) of 0.0198 µM.
In the case of LTIPPTAGI, the Kd (HLA-A*68:02; [8]) is reported as 0.00207 µM.
Work on EKMRRERAA yielded a Kd (HLA-B*08:01; [11]) of 0.00184 µM.
KPIDDRFAT gave a Kd (HLA-B*07:02; [12]) of 0.0493 µM.
Work on SHRPVVLTG yielded an IC50 (HLA-A*24:02; source organism: Variola virus) of no less than 71.3 µM.
Work on KREDQWCGSL yielded a Kd (HLA-B*08:01; [8]) of 7.72 µM.
SPARLASAIL was tested, and the Kd (HLA-B*07:02; [9]) was 0.00575 µM.
For IIFDIYFAI, the Kd (HLA-A*32:01; [11]) was 0.000934 µM.
INREGKVVGL showed a Kd (HLA-B*08:01; source organism: Dengue virus 3 Martinique/1243/1999) of 10.9 µM.
QSIFRFLNI gave a Kd (HLA-A*32:01; [11]) of 0.299 µM.
MEKSSKYYI showed an IC50 (HLA-A*02:01; [14]) of no less than 1680 µM and an IC50 (HLA-A*24:02; [14]) of 1.66 µM.
Sequence RTVSVMFFI has a Kd (HLA-B*57:01) of 1.24 µM, a Kd (HLA-B*39:01) of no less than 20 µM and a Kd (HLA-B*46:01) of no less than 20 µM. It also gave a Kd (HLA-B*15:01 [5]) of no less than 20 µM, a Kd (HLA-A*26:01 [6]) of no less than 20 µM and a Kd (HLA-B*27:03) of no less than 20 µM. The Kd (HLA-B*18:01 [7]) was no less than 20 µM.
Work on NITDKIDQI yielded an IC50 (HLA-A*02:01; [10]) of 25.3 µM and an IC50 (HLA-A*24:02; [10]) of 9.67 µM.
ARFSGLLIV was tested, and the IC50 (HLA-A*02:01; [10]) was no less than 461 µM and the IC50 (HLA-A*24:02; [10]) was no less than 267 µM.
With NKKYRCMAL the Kd (HLA-B*08:01; [11]) was 0.00187 µM.
With SEGGIFNIT the Kd (HLA-B*44:02) was no less than 20 µM and the Kd (HLA-B*40:01; source organism: Amur virus) was 0.813 µM.
For SIRFHIKEL, the Kd (HLA-B*08:01; [11]) was 0.000453 µM.
TSIGKALHQV was tested, and the Kd (HLA-A*68:02; [8]) was 0.0104 µM.
